We go through one molecule from article PMC4631386, “Identification and Characterization of the Interaction Site between cFLIPL and Calmodulin” (PLoS ONE, 2015).

The assay deals with T1, His-tagged human calmodulin (recombinant) (human, UniProt P0DP24 1-149).
T1 construct: human calmodulin, CALM2 cDNA (OriGene SC125707) in a modified pET16b with a TEV site between the N-terminal polyhistidine tag and the protein; also called free calmodulin; recombinant calmodulin; not shown: polyhistidine, N-terminal, kept
Kind of assay: ELISA; competition: calmodulin immobilised, GST-DED1 held at its KD concentration, R4 peptide titrated; anti-GST AlexaFluor 488 detection. The conditions noted are these: both partners purified. In general terms: ELISA stands for enzyme-linked immunosorbent assay.

B1: DED1 R4 peptide (peptide)
peptide: VRRFDLLKRILK
notes: cFLIP DED1 region 4, V62-K73, twelve amino acids; also called region 4; source: synthetic peptide (Tufts University Core Facility)
Usually IC50 stands for the concentration that gives 50% inhibition. B1: the IC50 amounted to 63 µM.
